What all share (assay): SPR
For test [1], the target named is human extracellular ACE2 p.Glu35Lys (human) (UniProt Q9BYF1).
In test [2] the target is human extracellular ACE2 p.Glu329Gly (human) (UniProt Q9BYF1).
Test [3] deals with human extracellular ACE2 p.Lys26Arg (human) (UniProt Q9BYF1).
The target of test [4] is human extracellular ACE2 p.Ser19Pro (human) (UniProt Q9BYF1).

The values below come from doi:10.1101/2021.05.21.445118.

Take “SARS-CoV-2 Spike receptor binding domain (from UniProt P0DTC2) (domain or fragment)”: the ΔΔG against WT ACE2 in test [1] was -0.36 kcal/mol; in test [2], -0.09 kcal/mol; in test [3] it was 0.26 kcal/mol; in test [4], 0.59 kcal/mol.
